These results are taken from patent US20180333469.

This data set addresses tissue factor pathway inhibitor (TFPI), P10646.

Entries after “also recorded” stand apart in the source; their conditions may differ.

tissue factor pathway inhibitor (TFPI), P10646, sequence (P10646 whole entry, looked up): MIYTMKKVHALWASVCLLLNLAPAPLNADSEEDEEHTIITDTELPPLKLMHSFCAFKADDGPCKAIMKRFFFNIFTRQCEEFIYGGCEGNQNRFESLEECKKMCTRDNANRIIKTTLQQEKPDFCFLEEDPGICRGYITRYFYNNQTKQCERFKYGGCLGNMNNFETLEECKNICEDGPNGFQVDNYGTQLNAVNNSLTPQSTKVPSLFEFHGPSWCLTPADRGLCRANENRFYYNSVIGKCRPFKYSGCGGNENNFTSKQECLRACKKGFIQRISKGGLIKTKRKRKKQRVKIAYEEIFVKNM

B1: fVIIa/TF enzyme complex (protein)
chain 1: ANAFLEELRPGSLERECKEEQCSFEEAREIFKDAERTKLFWISYSDGDQCASSPCQNGGSCKDQLQSYICFCLPAFEGRNCETHKDDQLICVNENGGCEQYCSDHTGTKRSCRCHEGYSLLADGVSCTPTVEYPCGKIPILEKRNASKPQGRIVGGKVCPKGECPWQVLLLVNGAQLCGGTLINTIWVVSAAHCFDKIKNWRNLIAVLGEHDLSEHDGDEQSRRVAQVIIPSTYVPGTTNHDIALLRLHQPVVLTDHVVPLCLPERTFSERTLAFVRFSLVSGWGQLLDRGATALELMVLNVPRLMTQDCLQQSRKVGDSPNITEYMFCAGYSDGSKDSCKGDSGGPHATHYRGTWYLTGIVSWGQGCATVGHFGVYTRVSQYIEWLQKLMRSEPRPGVLLRAPFP
chain 2: SGTTNTVAAYNLTWKSTNFKTILEWEPKPVNQVYTVQISTKSGDWKSKCFYTTDTECDLTDEIVKDVKQTYLARVFSYPAGNVESTGSAGEPLYENSPEFTPYLETNLGQPTIQSFEQVGTKVNVTVEDERTLVRRNNTFLSLRDVFGKDLIYTLYYWKSSSSGKKTAKTNTNEFLIDVDKGENYCFSVQAVIPSRTVNRKSTDSPVECMGQEKGEFREIFYIIGAVVFVVIILVIILAISLHKCRKAGVGQSWKENSPLNVS
As to B1, the “fXa formation from fX (170 nM) by fVIIa/TF, measured by Spectrozyme-Xa cleavage” value was “fXa combined with TFPI (included at the physiological concentration of 2.4 nM) and rapidly inhibited fVIIa/TF activity”.

B2: wild-type factor Xa (fXa) (protein)
chain 1: ANSFLEEMKKGHLERECMEETCSYEEAREVFEDSDKTNEFWNKYKDGDQCETSPCQNQGKCKDGLGEYTCTCLEGFEGKNCELFTRKLCSLDNGDCDQFCHEEQNSVVCSCARGYTLADNGKACIPTGPYPCGKQTLER
chain 2: IVGGQECKDGECPWQALLINEENEGFCGGTILSEFYILTAAHCLYQAKRFKVRVGDRNTEQEEGGEAVHEVEVVIKHNRFTKETYDFDIAVLRLKTPITFRMNVAPACLPERDWAESTLMTQKTGIVSGFGRTHEKGRQSTRLKMLEVPYVDRNSCKLSSSFIITQNMFCAGYDTKQEDACQGDSGGPHVTRFKDTYFVTGIVSWGEGCARKGKYGIYTKVTAFLKWIDRSMKTRGLPKAKSHAPEVITSSPLK
Take B2: the “fXa chromogenic activity (cleavage of Spectrozyme-fXa, 100 µM) after 2 hour incubation” value is “For fXa at both 0.5 nM and 1 nM, a 2 nM concentration of TFPI was enough to almost completely inhibit the activity of fXa; also recorded: Such inhibition was also significant when TFPI's concentration was at 1 nM”.
